From article PMC6303327, “A structural and dynamic model for the assembly of Replication Protein A on single-stranded DNA” come the findings set out here.

For data set [1], the target named is T1, ScRPA (Rfa1-Rfa2-Rfa3 heterotrimer, wild type) (Saccharomyces cerevisiae, UniProt P22336;P26754;P26755 1-621;1-273;1-122). In words: FRET titration; 10 nM DNA; Hill fit; panel in Supplementary Fig. 14 gives 38.7 ± 0.8; EMSA: 20 mM Tris pH 7.5, 150 mM NaCl, 10 mM MgCl2, 0.01% Tween-20, room temperature, 30 min; MST: MST-binding buffer (composition not in material), room temperature, 20 min; FRET: reaction buffer not given, 10 nM DNA. The note with it: protein: recombinant; tags: TEV-cleavable His6 on Rfa1; copies: 1;1;1; label: 5' Cy5, Cy3 after nt 29.
T1 sequence (P22336 whole entry, chain 1 of 3): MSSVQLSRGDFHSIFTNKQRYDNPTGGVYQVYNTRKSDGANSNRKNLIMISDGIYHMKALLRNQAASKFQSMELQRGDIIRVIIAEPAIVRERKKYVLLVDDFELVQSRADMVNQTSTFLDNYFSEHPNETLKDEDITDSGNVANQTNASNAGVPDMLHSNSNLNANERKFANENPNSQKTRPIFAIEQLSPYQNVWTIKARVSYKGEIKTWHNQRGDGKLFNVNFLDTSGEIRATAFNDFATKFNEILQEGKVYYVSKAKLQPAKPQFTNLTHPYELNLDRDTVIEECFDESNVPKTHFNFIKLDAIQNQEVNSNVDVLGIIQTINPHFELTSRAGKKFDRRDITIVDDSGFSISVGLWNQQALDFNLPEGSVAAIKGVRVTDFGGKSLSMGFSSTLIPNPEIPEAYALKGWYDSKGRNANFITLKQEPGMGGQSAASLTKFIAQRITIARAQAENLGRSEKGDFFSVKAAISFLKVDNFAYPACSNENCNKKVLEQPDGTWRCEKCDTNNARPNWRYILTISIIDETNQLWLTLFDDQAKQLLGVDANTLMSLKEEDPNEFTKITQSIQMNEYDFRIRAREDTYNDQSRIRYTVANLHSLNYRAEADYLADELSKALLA
T1 sequence (P26754 whole entry, chain 2 of 3): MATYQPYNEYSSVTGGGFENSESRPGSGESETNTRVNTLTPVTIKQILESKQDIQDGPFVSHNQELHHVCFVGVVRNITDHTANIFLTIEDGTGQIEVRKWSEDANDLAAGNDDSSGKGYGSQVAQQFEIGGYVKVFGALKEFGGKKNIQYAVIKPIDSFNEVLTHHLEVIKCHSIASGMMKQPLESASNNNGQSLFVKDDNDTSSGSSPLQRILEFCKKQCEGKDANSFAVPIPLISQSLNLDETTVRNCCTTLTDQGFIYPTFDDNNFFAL
T1 sequence (P26755 whole entry, chain 3 of 3): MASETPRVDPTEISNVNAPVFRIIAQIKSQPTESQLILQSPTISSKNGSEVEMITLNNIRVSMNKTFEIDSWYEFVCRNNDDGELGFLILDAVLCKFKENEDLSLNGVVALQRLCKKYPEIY

In data set [2] the target is T1, ScRPA (Rfa1-Rfa2-Rfa3 heterotrimer, …). As to the kind of experiment: MST; apparent EC50; Hill slope 0.9 ± 0.1; EMSA: 20 mM Tris pH 7.5, 150 mM NaCl, 10 mM MgCl2, 0.01% Tween-20, room temperature, 30 min; MST: MST-binding buffer (composition not in material), room temperature, 20 min; FRET: reaction buffer not given, 10 nM DNA. To be noted: protein: recombinant; tags: TEV-cleavable His6 on Rfa1; copies: 1;1;1; label: 5' Cy5. In general terms: A gel shift assay detects complexes by their altered migration in electrophoresis.

The target of the next data set is DBD-A (Rfa1) (Saccharomyces cerevisiae, UniProt P22336 178-294). In words: MST; EC50; EMSA: 20 mM Tris pH 7.5, 150 mM NaCl, 10 mM MgCl2, 0.01% Tween-20, room temperature, 30 min; MST: MST-binding buffer (composition not in material), room temperature, 20 min; FRET: reaction buffer not given, 10 nM DNA. To be noted: protein: recombinant; tags: GST removed by 3C cleavage; label: Cy5 (5').
Sequence of DBD-A (Rfa1) (P22336 178-294): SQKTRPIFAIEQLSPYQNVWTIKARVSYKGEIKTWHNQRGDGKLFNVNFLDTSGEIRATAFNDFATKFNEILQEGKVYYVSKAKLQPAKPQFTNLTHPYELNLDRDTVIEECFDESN

The target in another data set is DBD-A S178D (Saccharomyces cerevisiae, UniProt P22336 178-294, S178D). As to the kind of experiment: MST; S178D did not affect dT7 binding; EMSA: 20 mM Tris pH 7.5, 150 mM NaCl, 10 mM MgCl2, 0.01% Tween-20, room temperature, 30 min; MST: MST-binding buffer (composition not in material), room temperature, 20 min; FRET: reaction buffer not given, 10 nM DNA. To be noted: protein: recombinant; tags: GST removed by 3C cleavage; label: Cy5 (5').
Sequence of DBD-A S178D (P22336 178-294 S178D): as the sequence (P22336 178-294) above, with S1D counted along it

For data set [3], the target named is T1, ScRPA (Rfa1-Rfa2-Rfa3 heterotrimer, …). As to the kind of experiment: FRET titration; stoichiometric, X0 = 8.7 ± 0.3 nM at 10 nM DNA (1:1); EMSA: 20 mM Tris pH 7.5, 150 mM NaCl, 10 mM MgCl2, 0.01% Tween-20, room temperature, 30 min; MST: MST-binding buffer (composition not in material), room temperature, 20 min; FRET: reaction buffer not given, 10 nM DNA. To be noted: protein: recombinant; tags: TEV-cleavable His6 on Rfa1; copies: 1;1;1; label: 5' Cy5, 3' Cy3.

B1: dT90(1-30) (ssDNA)
DNA: TTTTTTTTTTTTTTTTTTTTTTTTTTTTTTTTTTTTTTTTTTTTTTTTTTTTTTTTTTTTTTTTTTTTTTTTTTTTTTTTTTTTTTTTTT
modifications: internal Cy3 in backbone
In the case of B1, the dissociation constant Kd (in general, the free concentration of one partner at which half of the binding sites on the other are occupied at equilibrium, for simple one-to-one binding) in data set [1] was 39.3 ± 0.9 nM.

B2: dT100 (Cy5) (ssDNA)
DNA: TTTTTTTTTTTTTTTTTTTTTTTTTTTTTTTTTTTTTTTTTTTTTTTTTTTTTTTTTTTTTTTTTTTTTTTTTTTTTTTTTTTTTTTTTTTTTTTTTTTT
Regarding B2, in data set [2], the “apparent K (half saturation)” value is approximately 20 nM.

B3: dT7 (Cy5) (ssDNA)
DNA: TTTTTTT
Consider B3, for which the “apparent K (half saturation)” value with DBD-A (Rfa1) is 309 ± 18 nM. Further, in the data set with DBD-A S178D, the binding result is given as “binds”.

B4: dT30 (FRET) (ssDNA)
DNA: TTTTTTTTTTTTTTTTTTTTTTTTTTTTTT
On to B4, for which the binding result in data set [3] is on record as “binds”.
